The target in the test is profilin1 (PFN1) (UniProt P07737). Put plainly: GST-PFN1 pull-down from cell lysate. The note with it: reference: wild type.

Consider DIAPH1 (from UniProt O60610) S665A, for which the “binding against the reference” value (sites S665) was “stronger”.

Take DIAPH1 (from UniProt O60610) S629A: for the setting “sites S629”, the “binding against the reference” value is on record as “stronger”.

(Values after paper PMC6395754.)
